From PMC7949082, “Mutant BIN1-Dynamin 2 complexes dysregulate membrane remodeling in the pathogenesis of centronuclear myopathy” (The Journal of Biological Chemistry, 2020)

Target: the molecule itself
Experiment: electron microscopy; purified dynamin 2 on lipid nanotubes, in the absence of GTP

B1: purified recombinant wild-type human dynamin 2 (His-tagged) (enzyme, UniProt P50570-1 1-870, looked up)
chain: MGNRGMEELIPLVNKLQDAFSSIGQSCHLDLPQIAVVGGQSAGKSSVLENFVGRDFLPRGSGIVTRRPLILQLIFSKTEHAEFLHCKSKKFTDFDEVRQEIEAETDRVTGTNKGISPVPINLRVYSPHVLNLTLIDLPGITKVPVGDQPPDIEYQIKDMILQFISRESSLILAVTPANMDLANSDALKLAKEVDPQGLRTIGVITKLDLMDEGTDARDVLENKLLPLRRGYIGVVNRSQKDIEGKKDIRAALAAERKFFLSHPAYRHMADRMGTPHLQKTLNQQLTNHIRESLPALRSKLQSQLLSLEKEVEEYKNFRPDDPTRKTKALLQMVQQFGVDFEKRIEGSGDQVDTLELSGGARINRIFHERFPFELVKMEFDEKDLRREISYAIKNIHGVRTGLFTPDLAFEAIVKKQVVKLKEPCLKCVDLVIQELINTVRQCTSKLSSYPRLREETERIVTTYIREREGRTKDQILLLIDIEQSYINTNHEDFIGFANAQQRSTQLNKKRAIPNQGEILVIRRGWLTINNISLMKGGSKEYWFVLTAESLSWYKDEEEKEKKYMLPLDNLKIRDVEKGFMSNKHVFAIFNTEQRNVYKDLRQIELACDSQEDVDSWKASFLRAGVYPEKDQAENEDGAQENTFSMDPQLERQVETIRNLVDSYVAIINKSIRDLMPKTIMHLMINNTKAFIHHELLAYLYSSADQSSLMEESADQAQRRDDMLRMYHALKEALNIIGDISTSTVSTPVPPPVDDTWLQSASSHSPTPQRRPVSSIHPPGRPPAVRGPTPGPPLIPVPVGAAASFSAPPIPSRPGPQSVFANSDLFPAPPQIPSRPVRIPPGIPPGVPSRRPPAAPSRPTIIRPAEPSLLD
notes: human dynamin 2 (NM_001005360), wild type, from the same Entry clone as the mammalian constructs; The vector is named pET15b in one paragraph and pET23b in another; no removal of the His tag is told; also called Dynamin 2 WT; DNM2WT
Does B1 bind?
Result: binds
